# Source: patent WO2014041119A1 (dated 2014)
# Target: T1, EGFR on the surface of A431 cells (human, UniProt P00533 25-1210)
# T1 construct: whole, on cells; also called cell surface EGFR
# Experiment: flow cytometry on A431 cells with cetuximab or rituximab pre-incubation
binder,measurement,value
"ONC-scFvEGFR (onconase (ONC) fused to a single-chain antibody fragment (scFv) against EGFR) (scFv, also called immunoRNase; fusion polypeptide) QDWLTFQKKHITNTRDVDCDNIMSTNLFHCKDKNTFIYSRPEPVKAICKGIIASKNVLTTSEFYLSDCNVTSRPCKYKLKKSTNKFCVTCENQAPVHFVGVGSCGGGGSGGGGSGGGGSEVQLVESGGGLVQPGGSLRLSCAASGFSLTNYGVHWVRQAPGKGLEWLGVIWSGGNTDYNTPFTSRFTISRDNSKNTLYLQMNSLRAEDTAVYYCARALTYYDYEFAYWGQGTTVTVSSGGGGSGGGGSGGGGSDIQLTQSPSFLSASVGDRVTITCRASQSIGTNIHWYQQKPGKAPKLLIKYASESISGVPSRFSGSGSGTEFTLTISSLQPEDFATYYCQQNNNWPTTFGAGTKLEIKRAAAEQKLISEEDLNGAAHHHHHH",binding result,binds
